Measurements taken from the nanobody polyreactivity screen of Harvey et al. (2022).

Assay: yeast display, Sf9 membrane polyspecificity reagent, FACS + sequencing; frameworks hold sequencing errors
In short: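 Sorting gates, low and high (top ~1%), were placed on anti-HA fluorescence to track expression and on streptavidin fluorescence to track reagent binding. A clone's polyreactivity label is taken from the gate it came out of. The reagent was 10% biotinylated, detergent-solubilized Sf9 membrane, applied for 1 hour at 4 °C to galactose-induced yeast display cells.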

Row | Sequence | polyreactivity (PSR sort gate)
1 | QVQLVESGGGLVHAGGSLRLSCAASGITFSRNTMGWYRQAPGKERELVAAITLRGGGRTYYADSVKGRFTISRDNAKNTVYLQMISLKPEDTAVYYCAARYLVTFGHQQRYFYWGQGTHVTVSS | high polyreactivity
2 | QVQLVESGGGLVHAGGSLRLSCAASGITFYLYTMGWYRQAPGKERELVATITSGASTSYADSVKGRFTISRDNAKNTFYLQMNSLNPEDTAVYYCAARRTRVTGRYSVYAFDYWGQGTQVTVSS | low polyreactivity
3 | QVQLVESGGGLVHAGGSLRLSCAASGLIFPRYAMGSYRQAPGKERELVAAISRSGGNTYYADSVKGRFTISRDNAKNTVYLQMNSLKPEDTAVYYCAAYFSTAPKSQYKLDYWGQGTQVTVSS | high polyreactivity
4 | QVQLVESGGGLVHAGGSLRLSCAASGLIFYDNMGWYRQAPGKERELVAAISSSGGSTSYADSVKGRFTISRDNAKNTVYLQMNSLKPEDTAVYYCAAVSGPFVQTSGNGEYDYWGQGTQVTVSS | low polyreactivity
5 | QVQLVESGGGLVHAGGSLRLSCAASGLTFVNYAMGWYRQAPGKERELVATISKTGGSTYYADSVKGRFTISRDNAKNTVFLQMNSLKPEDTAVYYCAVDAYYYKWYDYWGQGTQVSVSS | high polyreactivity
6 | QVQLVESGGGLVHAGGSLRLSCAASGNIFRYNAMGWYRQAPGKERELVAAISSVGTTNYADSVKGRFTISRDNAKNTVYLQMNSLKPEDSAVYYCAAVAFQGGYWYDYWGQGTQVTVSS | low polyreactivity
7 | QVQLVESGGGLVHAGGSLRLSCAASGNIITYNAMALYRQAPGKERELVAAITRGGNTNYADSVKGRFTISRDNAKNTVYLQMNSLKPEDTAVYFCAADRYVQLLGYFFEFDYWGQGSQVTVSS | low polyreactivity
8 | QVQLVESGGGLVHAGGSLRLSCAASGRICGPYVMGWYRQAPGKERELVASITSSGGSPYYADSVKGRFTISRDNAKNTVYLQMNSLKPEDTAVYYWGQGTQVSVSS | low polyreactivity
9 | QVQLVESGGGLVHAGGSLRLSCAASGRIFFRYAMGWYRQSPGKEREFVATITWSGGRTHYADSVKGRFTISRDNAKNTVYLQMNSLKPEDTAVYYCAASYHRYAFDYWGQGTQVTVSS | high polyreactivity
10 | QVQLVESGGGLVHAGGSLRLSCAASGRIFQYYAMGWYRQAPGKERELVAAIDQSGDTTYYADSVKGRFTISRDNAKNTVYLQMNSLKPEDTAVFYCAAGYDWAYHWVPQWMYFWGQGTQVTVSS | low polyreactivity
11 | QVQLVESGGGLVHAGGSLRLSCAASGRIFTPYAMGWYRQAPGKERELVAAISGRGGSTYYADSVKGRFTISRDNAKNTVYLQMNSLKPEDTAVYYCAATYFYVYDYWLDYWGQGTQVTVSS | high polyreactivity
12 | QVQLVESGGGLVHAGGSLRLSCAASGRIFYPYTMGWYRQAPGKERELVAAISIRGTSTYYADSVKGRFTISRDNAKNTVYLQMNSLKPEDTAVYYCAALYVGYDYWGQGTQVTVSS | high polyreactivity
13 | QVQLVESGGGLVHAGGSLRLSCAASGRIYRGNAMGWYRQAPGKERELVARITGNDGDTYYADSVKGRFTISRDNEKNTVYLQMKSLKPEDTAVYYCATDTSSYRSRYYYWGQGTQVTVSS | low polyreactivity
14 | QVQLVESGGGLVHAGGSLRLSCAASGRTFNGNAMGWYRQAPGKERELVAVITGSGGSTYYADSVKGRYTISRDNAKNTVYLQMNSLKPEDTAVYYCNKKVQRRSWYDYWGQGTQVTVSS | low polyreactivity
15 | QVQLVESGGGLVHAGGSLRLSCAASGSIFCTNVMGWYRQAPGKERELVAAISYSDGSTYYADSVKGRFTISRDNAKNTVYLQMNILKPEDSAVYYCADYLYYYWGGYDYWGQGTQVTVSS | low polyreactivity
16 | QVQLVESGGGLVHAGGSLRLSCAASGSIFDFNAMGWYRQVPGKERELVAAITSGGSTNYADSVKGRFTISRDNAKNTVYLQMNSLKPEDTAVYYCAARPARGASQGGYVRPWWYDSWGQGTQVTVSS | low polyreactivity
17 | QVQLVESGGGLVHAGGSLRLSCAASGSIFQYNAMGWYRQAPGKERELVATISSGGSTNYADSVKGRFTISRDNAKNTVYLQMNSLKPEDTAVYYCAAVVIVFYYAPNYWGDIEYGYWGQGTQVTVSS | low polyreactivity
18 | QVQLVESGGGLVHAGGSLRLSCAASGSIFSIYAMGWYRQAPGTERELVAAITKSGGSTYYADSVKGRFTISRDNAKNTVYLQMNSLKPEDTAVYYCAAEPQHYVGYYYWGQGNQVTVSS | high polyreactivity
19 | QVQLVESGGGLVHAGGSLRLSCAASGSILKYYAMGWYRQAPGKERELVAAITSRGGSTYYADSVKGRFTISRDNAKNTVYLQMNSLKPEDTAVYYCNRVYLGYFRYDYWGQGTQVTVSS | high polyreactivity
20 | QVQLVESGGGLVHAGGSLRLSCAASGSTFGDNAMRLYRQAPGKERELVAVISTAGSTYYADSVKGRFTISRDNAKNTVYLQMNSLKPEDTAVYYCAAAYYVWLYGFWYRRYDYWGQGTQVTVSS | low polyreactivity
21 | QVQLVESGGGLVHAGGSLRLSCAASGSTFRSYAMGWYRQAPGKERELVARISYRTGSTYYADSVKGRFTISRDYAKNTVYLQMNSLKPEDTAVYYCATRGSYVGGLYDYWGQGTQVTVSS | high polyreactivity

Row | Sequence | polyreactivity (PSR sort gate)
22 | QVQLVESGGGLVHAGGSLRLSCAASGSTFYGYTMGWYRQAPGKERELVAVITSGGSTYYADSVKGRFTISRDNAKNTVYLQMNSLKPEDTAVYYCAKRYGYPAYGRPWRIGRTYDYWGQGTQVTVSS | low polyreactivity
23 | QVQLVESGGGLVHAGGSLRLSCAASGSTLGYNVMGWYRQAPGKERELVAAISGDGSTNYADSVKGRFTISRDNAKNTVYLQMNSLKREDTEVYYCNAPFWGYRTSFSYPVVQRFDYWGQGTHVTVSS | low polyreactivity
24 | QVQLVESGGGLVHAGGSLRLSCAASGSTLQVYAMGWYREAPGIERELVAVITFSGGRTYYADSVKGRFTISRDTAKNTVYLQMNSLKPEDTADYYPAARYYWGQGTQVTVSS | high polyreactivity
25 | QVQLVESGGGLVHAGGSLRLSCAASGSTLSYAMGWYRQAPGKERELVAAISRSGGSTYYADSVKGRFTISRDNAKNTVYLQMNSLKPEDTAVYYCAADPYPSYANGGYYWGQGTQVTVSS | high polyreactivity
26 | QVQLVESGGGLVHAGGSLRLSCAASGSTYYGNAMGWYIQAPRKERELVAAINRGGSTYYADSVKGRFTISRDNAKNTVYLQMKSLKPEDTAVYYCAADYEYLPKTRDGYYWGQGTQVTVSS | low polyreactivity
27 | QVQLVESGGGLVHAGGSLRLSCAASGYTFSRNAMGWYRQAPGKERELVAAITGSGGSTYYADSVKGRFTISRDNAKNTVYLQMNSLKPEDTAVYYCATEVKRGYVGFDYWGQGTQVTVSS | low polyreactivity
28 | QVQLVESGGGLVHAGGSLRLSCAAYGFIFYDYVMGWYRQAPGKERELVAAITGSGGGTYYADSVKGRFTISRDNAKNTVYLQMNSLKPDATAVYYCAADFISVYGYEYYYWGQVTQVTVSS | high polyreactivity
29 | QVQLVESGGGLVHAGGSLRLSCAAYGIIFQYYTMGWYRQAPGKERELVASITYDGDSTYYADSVKGRFTISLDNAKNTVYLQMNSLKPEDTALYYCAAVANGFWTYEYWGQGTQVTVSS | low polyreactivity
30 | QVQLVESGGGLVHAGGSLRLSCAAYGRTYGTNAMGWYRQAPVKERELVAAIRRGGSRTYYADSVKGRFTISRDYAKNTVYLPMNSLKPEDTAVYYCAAKLRAYVDPFEYWGQGTQVTVSS | low polyreactivity
31 | QVQLVESGGGLVHAGGSLRLSCADSGRIFYANALGWSRQSPGRERELVAAISSGGSTYYADSVKGRFTSSRDNAKNTVYLQMNSLKPEDTAVYYCAVYTLKKVRPEYDYWGQGTQVTVSS | low polyreactivity
32 | QVQLVESGGGLVHAGGSLRLSCAPSGSTFFTNAMGWYRQAPGKERELVAAITINDGSTFYADSVKGRFTISRDNAKNTVYLQMNSLKQEDTAVYYCNADGVDLYDYWGQGTQVTVSS | low polyreactivity
33 | QVQLVESGGGLVHAGGSLRLSCASSGSTFFTNAMGWYRQAPGKERELVAAITINDGSTFYADSVKGRFTISRDNAKNTVYLQMNSLNPEDTAVYYCNADGVDLYDYWGQCTQVTVSS | low polyreactivity
34 | QVQLVESGGGLVHAGGSLRLSSAASGRTFLSYTMGWYRQAPGKERELVAVISRSGGRTYYADSVKGRFTISRDNATNTVYLQMNSLKPEDTADYYCAADTYRGYDFDYWGQGSQVTVSS | high polyreactivity
35 | QVQLVESGGGLVHAGGSLRLSSAASGSIYYYAMGWYRQAPGKERELVAAITWRGGRTYYADSVKGRFTISRDNAKNNVYLQMNILKPEDTAVYYCNDVAPGKYNHWGQGTQVNVSS | high polyreactivity
36 | QVQLVESGGGLVHAGGSLRLTCAASGLTFAYYAMGWYRQAPGKERELVAAISWNGGRTYNADSVKGRFTISRDNAKNTVYLQMNSLKPEDTAVYYCAAQVTSSFYWGQGTQVTVSS | high polyreactivity
37 | QVQLVESGGGLVHAGGSLRLTCAASGRTYRNGMGWYRQAPGKERELVAAISVSGTRTYYADSVKGRFTISRDNAKNTVYLQMNSLKPEDTAVYYCNADLSPTADDELDYRLVRDDYWGQGTQVTVSS | low polyreactivity
38 | QVQLVESGGGLVHAGGSLSLSCAASGSIFGQYAMGWYRQAPGKERELVAAISYSTDARTYYADSVKGRFTISRDNAKNTVYLQMNSLKPEDTAVYYFNADSYFGYWGQGTQVTVSS | low polyreactivity
39 | QVQLVESGGGLVHAGGSLSLSCAASGYTFPLYAMGRYRQAPGKERELVADNNIGGASTYYADSVKGRFTISRDNAKNTVYLQMNSLKPEDTAVYYCAKEDYDGYFPTFDYDYWGQGTQVTVSS | low polyreactivity
40 | QVQLVESGGGLVHAGRSLRLSCAPSGSTFSIYDMGWSRQAPGKERELVAAISGSGSRTYYADSVKGRFTISRDNAKNTVYLQMNSLKPEDTALYYCAARGRHRDGFDFNYWGQGTQVTVSS | high polyreactivity
41 | QVQLVESGGGLVHPGGRLRLSCAASGRIYKYYVMGWYRQAPGKEREFVAAISGRGGRTYYADSVKGRFTISRDNAKNTVYLQKNSLKPEDTAVYYCATERQDRGPLGYNYWGQGTQVTVSS | high polyreactivity
